In patent US20240400711A1 (SOUND BIOPHARMACEUTICALS, published 2024):
Where two headings read alike, the source gives them in different places.

T1: rhesus macaque erythrocytes (rhesus macaque)
T1 chain: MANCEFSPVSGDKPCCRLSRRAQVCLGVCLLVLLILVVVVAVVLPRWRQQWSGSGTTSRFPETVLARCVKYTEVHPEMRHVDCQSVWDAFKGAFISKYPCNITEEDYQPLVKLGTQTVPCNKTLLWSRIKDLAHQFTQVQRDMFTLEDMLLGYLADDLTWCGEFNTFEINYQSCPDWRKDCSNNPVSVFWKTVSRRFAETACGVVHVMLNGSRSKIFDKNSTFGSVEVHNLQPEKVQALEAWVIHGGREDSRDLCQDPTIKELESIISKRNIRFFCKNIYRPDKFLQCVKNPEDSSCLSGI

T2: mouse CD38 antigen protein (mouse, UniProt P56528 45-304, limits assumed)
T2 construct: also called mouse antigen
T2 sequence (looked up): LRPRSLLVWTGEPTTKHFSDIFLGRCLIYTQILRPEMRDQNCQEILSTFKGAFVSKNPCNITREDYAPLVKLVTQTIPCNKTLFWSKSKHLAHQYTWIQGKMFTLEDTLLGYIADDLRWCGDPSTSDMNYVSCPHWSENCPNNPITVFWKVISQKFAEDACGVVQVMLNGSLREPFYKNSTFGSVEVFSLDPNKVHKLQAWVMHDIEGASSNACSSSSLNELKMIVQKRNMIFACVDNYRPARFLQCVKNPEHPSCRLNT

T3: rat CD38 antigen protein (rat, UniProt Q64244 45-303, limits assumed)
T3 construct: also called rat antigen
T3 sequence (looked up): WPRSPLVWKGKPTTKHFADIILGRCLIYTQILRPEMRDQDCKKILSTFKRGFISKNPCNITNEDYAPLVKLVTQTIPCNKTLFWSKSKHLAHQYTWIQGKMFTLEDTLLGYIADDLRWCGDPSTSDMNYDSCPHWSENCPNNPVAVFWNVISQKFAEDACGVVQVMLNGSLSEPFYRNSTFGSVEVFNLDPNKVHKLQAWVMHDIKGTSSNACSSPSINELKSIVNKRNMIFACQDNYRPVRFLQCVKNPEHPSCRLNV

B1: FTL004-1 (antibody, human IgG1, kappa)
heavy: not shown
light: DIVLTQSPASLAVSPGQRATITCRASESVDNFGITFMHWYQQKPGQPPKLLIYRASNLESGVPARFSGSGSRTDFTLTINPVEANDTANYYCQQSSKDPRTFGQGTKLEIKRTVAAPSVFIFPPSDEQLKSGTASVVCLLNNFYPREAKVQWKVDNALQSGNSQESVTEQDSKDSTYSLSSTLTLSKADYEKHKVYACEVTHQGLSSPVTKSFNRGEC
notes: copies: 2 + 2
B2: Daratumumab (antibody, V domains shown)
VH: EVQLLESGGGLVQPGGSLRLSCAVSGFTFNSFAMSWVRQAPGKGLEWVSAISGSGGGTYYADSVKGRFTISRDNSKNTLYLQMNSLRAEDTAVYFCAKDKILWFGEPVFDYWGQGTLVTVSS
VL: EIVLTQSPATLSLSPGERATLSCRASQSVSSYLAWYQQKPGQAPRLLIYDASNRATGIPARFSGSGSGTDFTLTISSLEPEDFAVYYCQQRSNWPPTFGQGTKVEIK
B3: H2 antibody (antibody, V domains shown)
VH: EVQLQESGAELVRSGASVKMSCKASGYTFTDYNVHWIKQTPGQGLEWIGYFYPRNGATHYNQKFTGKATLTADTSSSTAYIQISSLTSEDSAVYFCARGETPGTFPYWGQGTLVTVSA
VL: DIVLTQSPASLTVSLGQRATISCRASESVDNFGITFMHWYQQKPGQPPKLLIYRASNLESGIPARFSGSGSRTDFTLTIDPVETDDVATYYCQQSSKDPRTFGGGTKLEIK
notes: Murine monoclonal antibody from a BALB/c hybridoma; also called H2 mAb; Hybridoma-2

Experiments:
[1] = molecular target: T4, CD38 on CD38-positive cells (human, UniProt P28907 1-300); assay: cell-based or functional assay
FcγRIIIa (V176) = FcγRIIIa (V176) (UniProt P08637 17-208, limits assumed); assay: kinetics, FcγRIIIa as ligand, antibody as analyte
FcγRIIIa (V176), sequence (P08637 17-208 F176V limits assumed): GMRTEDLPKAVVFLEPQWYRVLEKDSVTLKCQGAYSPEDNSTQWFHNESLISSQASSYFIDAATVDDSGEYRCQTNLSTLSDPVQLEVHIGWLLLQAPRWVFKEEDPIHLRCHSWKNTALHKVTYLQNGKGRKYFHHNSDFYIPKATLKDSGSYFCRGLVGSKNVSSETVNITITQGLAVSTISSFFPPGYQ

FcγRIIIa(F176) = FcγRIIIa(F176) (UniProt P08637 17-208, limits assumed); assay: kinetics, FcγRIIIa as ligand, antibody as analyte
FcγRIIIa(F176), sequence (P08637 17-208 limits assumed): as the sequence (P08637 17-208 F176V limits assumed) above, with V160F counted along it

[2] = molecular target: T4, CD38 on CD38-positive cells; assay: flow cytometry on NCI-H211 cells (small cell lung cancer), MFI against antibody concentration [table, row NCI-H211]
[3] = molecular target: T1, rhesus macaque erythrocytes; assay: flow cytometry on rhesus macaque erythrocytes
[4] = molecular target: T4, CD38 on CD38-positive cells; assay: flow cytometry on SU-DHL-6 cells (B cell lymphoma), MFI against antibody concentration [table, row SU-DHL-6]
[5] = molecular target: T4, CD38 on CD38-positive cells; assay: flow cytometry on CD38-positive H211 cells
[6] = molecular target: T5, recombinant extracellular domain of CD38 (human, UniProt P28907 43-300); assay: Biacore SPR
T5 construct: also called CD38 extracellular domain; AtaGenix ATMP00140HU

[7] = molecular target: T5, recombinant extracellular domain of CD38; assay: Biacore SPR; remark: listed apart in the source
[8] = molecular target: T2, mouse CD38 antigen protein; assay: ELISA on coated mouse CD38 antigen (1 µg/mL) [panel Mouse CD38]
Method: (§1) The cross-reactivity of the antibodies between CD38 antigen proteins of different species was measured using Elisa. Coating was performed with CD38 antigens of different species (human, cynomolgus, mouse, and rat) (1 μg/mL, 50 mL/well), and incubation was performed overnight at 2-8° C.

rat CD38 antigen protein = molecular target: T3, rat CD38 antigen protein; assay: ELISA on coated rat CD38 antigen (1 µg/mL) [panel Rat CD38]
Method: as §1

| Binder | Rate of apoptosis (%), Daudi cells [1] [%] | Rate of apoptosis (%), Raji cells [1] [%] | Rate of apoptosis (%), Romas cells [1] [%] | Rate of apoptosis (%), SU-DHL-6 cells [1] [%] | Kd (FcγRIIIa (V176)) [nM] | koff (FcγRIIIa (V176)) [s⁻¹] | kon (FcγRIIIa (V176)) [M⁻¹ s⁻¹] | Kd (FcγRIIIa(F176)) [nM] | EC50 [2] [µg/mL] | EC50 [3] [µg/mL] | EC50 [4] [µg/mL] | EC50 [5] [µg/mL] | Kd [6] [nM] | koff [6] [s⁻¹] | kon [6] [M⁻¹ s⁻¹] | Kd [7] [nM] | koff [7] [s⁻¹] | kon [7] [M⁻¹ s⁻¹] | binding result [8] | binding result (rat CD38 antigen protein) |
| --- | --- | --- | --- | --- | --- | --- | --- | --- | --- | --- | --- | --- | --- | --- | --- | --- | --- | --- | --- | --- |
| B1 | 40.9 | 7.14 | 64.2 | 21.2 | 29.5 | 0.0229 | 778000 | 19.5 | 0.555 | 2 to 5 | – | – | – | – | – | – | – | – | – | – |
| B2 | 10.6 | 5.73 | 9.78 | 10.4 | – | – | – | – | – | – | 0.548 | 1.94 | 1.96 | 0.000355 | 181000 | 12.2 | 0.00363 | 297000 | – | – |
| B3 | – | – | – | – | – | – | – | – | – | – | – | – | 2.02 | 0.0005 | 248000 | 14.6 | 0.000969 | 66100 | no binding (tested: 300 µg/ml) | no binding (tested: 300 µg/ml) |
